The values that follow come from patent US20210206825A1 (published 2021).

Experiment [1] concerns the target T1, recombinant human c-Met Fc chimera (human, UniProt P08581 16-932).
T1 construct: also called c-Met-Fc fusion protein; c-Met extracellular domain; not shown: Fc
As to the kind of experiment: SPR. The source says: Serine was chosen to decrease the hydrophobicity of the resulting mutants. […] Fold change indicates fold change of the KD value of a variant when compared to the parent P114AR7P95-A3.

Experiment [2] concerns the target human EGFR on cells (human, UniProt P00533 25-1210). As to the kind of experiment: cell-based or functional assay.

B1: ECB15 (SEQ ID NO: 145) (designed binder)
chain: LPAPKNLVVSEVTEDSARLSWDDPWAFYESFLIQYQESEKVGEAIVLTVPGSERSYDLTGLKPGTEYTVSIYGVHNVYKDTNMRGLPLSAIFTTAPAPAPAPAPLPAPKNLVVSRVTEDSARLSWTAPDAAFDSFWIRYFEFLGSGEAIVLTVPGSERSYDLTGLKPGTEYVVNIMGVKGGKISPPLSAIFTT
notes: kept as two constructs; also called ECB15 without Met; not shown: C-terminal poly-histidine tag
Turning to B1, the Kd in experiment [1] worked out at 0.4 nM.

B2: A3 L39S (designed binder)
chain: LPAPKNLVVSEVTEDSARLSWDDPWAFYESFLIQYQESEKVGEAIVLTVPGSERSYDLTGLKPGTEYTVSIYGVHNVYKDTNMRGLPLSAIFTTAPAPAPAPAPLPAPKNLVVSRVTEDSARLSWTAPDAAFDSFWIRYFEFSGSGEAIVLTVPGSERSYDLTGLKPGTEYVVNIMGVKGGKISPPLSAIFTT
notes: In the context of ECB15; built as m66; not shown: C-terminal poly-histidine tag
Turning to B2, in experiment [1], the “Fold Change of KD vs parent” value was found to be 6.75 fold, the dissociation constant Kd amounted to 2.7 nM, the koff was 0.00127 s⁻¹ and the kon came to 475000 M⁻¹ s⁻¹.

B3: A3 M72S (designed binder)
chain: LPAPKNLVVSEVTEDSARLSWDDPWAFYESFLIQYQESEKVGEAIVLTVPGSERSYDLTGLKPGTEYTVSIYGVHNVYKDTNMRGLPLSAIFTTAPAPAPAPAPLPAPKNLVVSRVTEDSARLSWTAPDAAFDSFWIRYFEFLGSGEAIVLTVPGSERSYDLTGLKPGTEYVVNISGVKGGKISPPLSAIFTT
notes: as for B2
In the case of B3, the binding result in experiment [1] is recorded as “no binding”.

B4: A3 I79S (designed binder)
chain: LPAPKNLVVSEVTEDSARLSWDDPWAFYESFLIQYQESEKVGEAIVLTVPGSERSYDLTGLKPGTEYTVSIYGVHNVYKDTNMRGLPLSAIFTTAPAPAPAPAPLPAPKNLVVSRVTEDSARLSWTAPDAAFDSFWIRYFEFLGSGEAIVLTVPGSERSYDLTGLKPGTEYVVNIMGVKGGKSSPPLSAIFTT
notes: as for B2
Consider B4, for which the binding result in experiment [1] is “no binding”.

B5: A3 F38S (designed binder)
chain: LPAPKNLVVSEVTEDSARLSWDDPWAFYESFLIQYQESEKVGEAIVLTVPGSERSYDLTGLKPGTEYTVSIYGVHNVYKDTNMRGLPLSAIFTTAPAPAPAPAPLPAPKNLVVSRVTEDSARLSWTAPDAAFDSFWIRYFESLGSGEAIVLTVPGSERSYDLTGLKPGTEYVVNIMGVKGGKISPPLSAIFTT
notes: as for B2
As to B5, in experiment [1], the “Fold Change of KD vs parent” value turned out to be 1790 fold, the Kd was 717 nM, the koff worked out at 0.0323 s⁻¹ and the on-rate (kon) is 45100 M⁻¹ s⁻¹.

B6: A3 N70S (designed binder)
chain: LPAPKNLVVSEVTEDSARLSWDDPWAFYESFLIQYQESEKVGEAIVLTVPGSERSYDLTGLKPGTEYTVSIYGVHNVYKDTNMRGLPLSAIFTTAPAPAPAPAPLPAPKNLVVSRVTEDSARLSWTAPDAAFDSFWIRYFEFLGSGEAIVLTVPGSERSYDLTGLKPGTEYVVSIMGVKGGKISPPLSAIFTT
notes: as for B2
As to B6, in experiment [1], the “Fold Change of KD vs parent” value is 14.8 fold, the dissociation constant (Kd) was found to be 5.9 nM, the koff came out at 0.00249 s⁻¹ and the on-rate (kon) was determined as 425000 M⁻¹ s⁻¹.

B7: A3 P81S (designed binder)
chain: LPAPKNLVVSEVTEDSARLSWDDPWAFYESFLIQYQESEKVGEAIVLTVPGSERSYDLTGLKPGTEYTVSIYGVHNVYKDTNMRGLPLSAIFTTAPAPAPAPAPLPAPKNLVVSRVTEDSARLSWTAPDAAFDSFWIRYFEFLGSGEAIVLTVPGSERSYDLTGLKPGTEYVVNIMGVKGGKISSPLSAIFTT
notes: as for B2
B7: in experiment [1], the “Fold Change of KD vs parent” value came to 4.25 fold, the Kd was found to be 1.7 nM, the koff worked out at 0.000536 s⁻¹ and the kon was 321000 M⁻¹ s⁻¹.

B8: A3 V68S (designed binder)
chain: LPAPKNLVVSEVTEDSARLSWDDPWAFYESFLIQYQESEKVGEAIVLTVPGSERSYDLTGLKPGTEYTVSIYGVHNVYKDTNMRGLPLSAIFTTAPAPAPAPAPLPAPKNLVVSRVTEDSARLSWTAPDAAFDSFWIRYFEFLGSGEAIVLTVPGSERSYDLTGLKPGTEYSVNIMGVKGGKISPPLSAIFTT
notes: as for B2
Consider B8, for which, in experiment [1], the “Fold Change of KD vs parent” value was determined as 9 fold, the equilibrium dissociation constant (Kd) was 3.6 nM, the off-rate (koff) amounted to 0.0012 s⁻¹ and the on-rate constant (kon) amounted to 329000 M⁻¹ s⁻¹.

B9: A3 K78S (designed binder)
chain: LPAPKNLVVSEVTEDSARLSWDDPWAFYESFLIQYQESEKVGEAIVLTVPGSERSYDLTGLKPGTEYTVSIYGVHNVYKDTNMRGLPLSAIFTTAPAPAPAPAPLPAPKNLVVSRVTEDSARLSWTAPDAAFDSFWIRYFEFLGSGEAIVLTVPGSERSYDLTGLKPGTEYVVNIMGVKGGSISPPLSAIFTT
notes: Tested in the context of bispecific ECB15; not shown: C-terminal poly-histidine tag
On to B9, for which, in experiment [1], the “Fold Change of KD vs parent” value worked out at 0.75 fold, the Kd was 0.3 nM, the off-rate constant (koff) is 0.00015 s⁻¹ and the on-rate constant (kon) was 440000 M⁻¹ s⁻¹.

B10: A3 F36S (designed binder)
chain: LPAPKNLVVSEVTEDSARLSWDDPWAFYESFLIQYQESEKVGEAIVLTVPGSERSYDLTGLKPGTEYTVSIYGVHNVYKDTNMRGLPLSAIFTTAPAPAPAPAPLPAPKNLVVSRVTEDSARLSWTAPDAAFDSFWIRYSEFLGSGEAIVLTVPGSERSYDLTGLKPGTEYVVNIMGVKGGKISPPLSAIFTT
notes: as for B2
B10: in experiment [1], the “Fold Change of KD vs parent” value stood at 68 fold, the Kd is 27.2 nM, the off-rate constant (koff) was 0.00512 s⁻¹ and the kon worked out at 188000 M⁻¹ s⁻¹.

B11: A3 R34S (designed binder)
chain: LPAPKNLVVSEVTEDSARLSWDDPWAFYESFLIQYQESEKVGEAIVLTVPGSERSYDLTGLKPGTEYTVSIYGVHNVYKDTNMRGLPLSAIFTTAPAPAPAPAPLPAPKNLVVSRVTEDSARLSWTAPDAAFDSFWISYFEFLGSGEAIVLTVPGSERSYDLTGLKPGTEYVVNIMGVKGGKISPPLSAIFTT
notes: as for B2
With B11, the binding result in experiment [1] is recorded as “no binding”.

B12: A3 G40S (designed binder)
chain: LPAPKNLVVSEVTEDSARLSWDDPWAFYESFLIQYQESEKVGEAIVLTVPGSERSYDLTGLKPGTEYTVSIYGVHNVYKDTNMRGLPLSAIFTTAPAPAPAPAPLPAPKNLVVSRVTEDSARLSWTAPDAAFDSFWIRYFEFLSSGEAIVLTVPGSERSYDLTGLKPGTEYVVNIMGVKGGKISPPLSAIFTT
notes: as for B2
In the case of B12, in experiment [1], the “Fold Change of KD vs parent” value amounted to 4.25 fold, the Kd is 1.7 nM, the off-rate (koff) was found to be 0.00032 s⁻¹ and the kon was 185000 M⁻¹ s⁻¹.

B13: A3 W32S (designed binder)
chain: LPAPKNLVVSEVTEDSARLSWDDPWAFYESFLIQYQESEKVGEAIVLTVPGSERSYDLTGLKPGTEYTVSIYGVHNVYKDTNMRGLPLSAIFTTAPAPAPAPAPLPAPKNLVVSRVTEDSARLSWTAPDAAFDSFSIRYFEFLGSGEAIVLTVPGSERSYDLTGLKPGTEYVVNIMGVKGGKISPPLSAIFTT
notes: as for B2
Consider B13, for which, in experiment [1], the “Fold Change of KD vs parent” value was found to be 74.5 fold, the Kd was determined as 29.8 nM, the dissociation rate constant (koff) came to 0.0086 s⁻¹ and the kon was 289000 M⁻¹ s⁻¹.

B14: ECB95 (designed binder, not shown: small tags and cut ends)
chain: MLPAPKNLVVSEVTEDSARLSWDDPWAFYESFLIQYQESEKVGEAIVLTVPGSERSYDLTGLKPGTEYTVSIYGVHNVYKDTNIRGLPLSAIFTTAPAPAPAPAPLPAPKNLVVSRVTEDSARLSWTAPDAAFDSFWIRYFEFVGSGEAIVLTVPGSERSYDLTGLKPGTEYVVNILGVKGGSISPPLSAIFTT
Consider B14, for which the “pEGFR inhibition in H292 cells (IC50)” value in experiment [2] was found to be 13.6 nM.

B15: ECB97 (designed binder, not shown: small tags and cut ends)
chain: MLPAPKNLVVSEVTEDSARLSWDDPWAFYESFLIQYQESEKVGEAIVLTVPGSERSYDLTGLKPGTEYTVSIYGVHNVYKDTNIRGLPLSAIFTTAPAPAPAPAPLPAPKNLVVSRVTEDSARLSWTAPDAAFDSFWIRYFEFLGSGEAIVLTVPGSERSYDLTGLKPGTEYVVNILSVKGGSISPPLSAIFTT
For the molecule B15, the “pEGFR inhibition in H292 cells (IC50)” value in experiment [2] came out at 16.6 nM.

B16: ECB96 (designed binder, not shown: small tags and cut ends)
chain: MLPAPKNLVVSEVTEDSARLSWDDPWAFYESFLIQYQESEKVGEAIVLTVPGSERSYDLTGLKPGTEYTVSIYGVHNVYKDTNIRGLPLSAIFTTAPAPAPAPAPLPAPKNLVVSRVTEDSARLSWTAPDAAFDSFWIRYFEFVSKGDAIVLTVPGSERSYDLTGLKPGTEYVVNILGVKGGSISPPLSAIFTT
For B16, in experiment [2], the “pEGFR inhibition in H292 cells (IC50)” value turned out to be 24.7 nM.

B17: ECB15 (designed binder, not shown: small tags and cut ends)
chain: MLPAPKNLVVSEVTEDSARLSWDDPWAFYESFLIQYQESEKVGEAIVLTVPGSERSYDLTGLKPGTEYTVSIYGVHNVYKDTNMRGLPLSAIFTTAPAPAPAPAPLPAPKNLVVSRVTEDSARLSWTAPDAAFDSFWIRYFEFLGSGEAIVLTVPGSERSYDLTGLKPGTEYVVNIMGVKGGKISPPLSAIFTT
For the molecule B17, in experiment [2], the “pEGFR inhibition in H292 cells (IC50)” value is 4.2 nM.

B18: ECB108 (designed binder, not shown: small tags and cut ends)
chain: MLPAPKNLVVSEVTEDSARLSWDDPHAFYESFLIQYQESEKVGEAIVLTVPGSERSYDLTGLKPGTEYTVSIYGVHNVYKDTNIRGLPLSAIFTTAPAPAPAPAPLPAPKNLVVSRVTEDSARLSWTAPDAAFDSFWIRYFEFVSKGDAIVLTVPGSERSYDLTGLKPGTEYVVNILGVKGGSISPPLSAIFTT
B18: the “pEGFR inhibition in H292 cells (IC50)” value in experiment [2] amounted to 814 nM.

B19: ECB107 (designed binder, not shown: small tags and cut ends)
chain: MLPAPKNLVVSEVTEDSARLSWDDPHAFYESFLIQYQESEKVGEAIVLTVPGSERSYDLTGLKPGTEYTVSIYGVHNVYKDTNIRGLPLSAIFTTAPAPAPAPAPLPAPKNLVVSRVTEDSARLSWTAPDAAFDSFWIRYFEFVGSGEAIVLTVPGSERSYDLTGLKPGTEYVVNILGVKGGSISPPLSAIFTT
With B19, the “pEGFR inhibition in H292 cells (IC50)” value in experiment [2] was 812 nM.

B20: ECB94 (designed binder, not shown: small tags and cut ends)
chain: MLPAPKNLVVSEVTEDSARLSWDDPWAFYESFLIQYQESEKVGEAIVLTVPGSERSYDLTGLKPGTEYTVSIYGVHNVYKDTNIRGLPLSAIFTTAPAPAPAPAPLPAPKNLVVSRVTEDSARLSWTAPDAAFDSFWIRYFEFLGSGEAIVLTVPGSERSYDLTGLKPGTEYVVNILGVKGGKISPPLSAIFTT
With B20, the “pEGFR inhibition in H292 cells (IC50)” value in experiment [2] came out at 5.1 nM.

B21: ECB106 (designed binder, not shown: small tags and cut ends)
chain: MLPAPKNLVVSEVTEDSARLSWDDPHAFYESFLIQYQESEKVGEAIVLTVPGSERSYDLTGLKPGTEYTVSIYGVHNVYKDTNIRGLPLSAIFTTAPAPAPAPAPLPAPKNLVVSRVTEDSARLSWTAPDAAFDSFWIRYFEFLGSGEAIVLTVPGSERSYDLTGLKPGTEYVVNILGVKGGKISPPLSAIFTT
As to B21, the “pEGFR inhibition in H292 cells (IC50)” value in experiment [2] came out at 367 nM.
